{"source": "patent US20190351013", "biological_target": "HPV16 L2 minor capsid protein (UniProt P03107)", "sequence (P03107 whole entry)": "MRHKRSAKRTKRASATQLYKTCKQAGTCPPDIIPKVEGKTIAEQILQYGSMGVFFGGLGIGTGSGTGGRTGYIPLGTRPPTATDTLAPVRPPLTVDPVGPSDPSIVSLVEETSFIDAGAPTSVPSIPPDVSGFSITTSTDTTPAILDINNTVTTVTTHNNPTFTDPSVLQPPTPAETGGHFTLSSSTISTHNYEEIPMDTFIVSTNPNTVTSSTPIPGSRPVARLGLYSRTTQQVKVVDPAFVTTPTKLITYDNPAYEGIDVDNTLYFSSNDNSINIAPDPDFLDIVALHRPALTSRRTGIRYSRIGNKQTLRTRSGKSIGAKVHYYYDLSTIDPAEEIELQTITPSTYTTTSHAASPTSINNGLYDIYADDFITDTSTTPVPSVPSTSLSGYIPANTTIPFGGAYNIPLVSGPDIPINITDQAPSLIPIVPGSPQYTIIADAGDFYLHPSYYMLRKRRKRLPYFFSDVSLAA", "data": [{"substance": "recombinant His-furin", "values": [{"measurement": "cleavage of HPV16 L2 by furin, immunoblot with anti-HPV16 polyclonal antibody", "result": "furin cleaves the L2 protein in the absence of polyR and FI"}]}]}
